Assays:
human Sdc2 [1] = target: T1, human Sdc2 (human, UniProt P34741 19-144, limits assumed); assay: Octet tandem binning; saturating Ab f10 19838-10-I12-A
T1 construct: Antigen of the Octet tandem binning, loaded on biosensors at 100 nM; also called huSdc2; hSdc2
Method: (§1) These studies were performed in a tandem binning assay format with human Sdc2, used as the antigen (concentration of 100 nM). Antigen loaded biosensors were dipped in a saturating solution of antibody (25 μg/ml) for 240 seconds followed by a competing antibody at 5 μg/ml for 180 seconds. […] Since saturation is not possible to achieve saturation with these clones, they are removed in as ligands, but retained in the analyte orientation in the analysis. A table summarizing the results of epitope binning of the 18 antibodies against huSdc2 is illustrated in FIG. 30. Data is normalized, where the raw binding signal from Competing Ab for a given Saturating Ab is divided by binding in the absence a […] (“buffer”). The threshold determining the matrix color is adjustable and dependent upon Ag-Ab binding. […] Table rows are based on similar looking binding profiles. Note that the coloration/cutoff is subjective, yellow color added to represent injections with ambiguous or very weak sandwiching signals. FIG. 31 illustrates a clustergram of the epitope binning studies, which was generated from the normalized binning data by importation into the statistical computing program R (The R Project for Statistical Computing: at r-project.org) and generation of a clustergram with the pvclust package.

human Sdc2 [2] = target: T1, human Sdc2; assay: Octet tandem binning; saturating Ab f7 19844-R3-P3-A12
Method: as §1

pig Sdc2 [3] = target: T2, pig Sdc2 (pig, UniProt F1S0L5 19-145); assay: Octet BLI, HIS1K sensor loaded with pigSdc2, antibody as sample; Full R2 0.9988; heading box reads Pig Sdc2 (Kd~ low femtomolar)
T2 construct: also called pSdc2
Method: (§2) In order to characterize the binding affinity and in vivo/in vitro functional ability of the twelve clones generated by the previous studies and disclosed in Table 1, a series of assays were performed on each clone. These assays measured the affinity of each antibody clone for human, pig, and mouse Sdc2 using an Octet® binding assay system. Additionally, the functional ability of each clone to inhibit VEGFA-driven permeability (see Santiago, et al. (2021) J Am Heart Assoc. 10(18):e020521) was assessed in two therapeutic settings: a “prevention” study in which three concentrations of antibody (5 μg/ml, 10 μg/ml, 15 μg/ml, 20 μg/ml, and/or 40 μg/ml depending on the study) were pre-incubated for an hour before administration of 100 ng/ml of VEGFA, and a “treatment” study in which 3 hours of pre-treatment with 100 ng/ml VEGFA were followed by treatment with antibody at 20 μg/ml or 40 μg/ml. Results are shown for 8-G17 in FIG. 8 and FIG. 9, 20-H19-AB in FIG. 10 and FIG. 11 (FIG. 12 for monkey ECs), R3-P3-C11 in FIG. 13 and FIG. 14, R4M-P3-E06 in FIG. 15 and FIG. 16, R3-P3-E09 in FIG. 17 and FIG. 18, R3-P1-C02 in FIG. 19 and FIG. 20, R3-P3-A12 in FIG. 21 and FIG. 22, R4M-P3-A12 in FIG. 23 and FIG. 24, and R4M-P1-A10 in FIG. 25 and FIG. 26.

human Sdc2 [4] = target: T1, human Sdc2; assay: Octet tandem binning; saturating Ab f11 19838-20-H19-A
Method: as §1

[5] = target: human Sdc2 on Human Umbilical Vein Endothelial Cells (HUVEC) (human, UniProt P34741 19-201); assay: cell-based or functional assay
human Sdc2 [6] = target: T1, human Sdc2; assay: Octet tandem binning; saturating Ab m2 19838-8G17-A
Method: as §1

human Sdc2 [7] = target: T1, human Sdc2; assay: Octet tandem binning; saturating Ab f12 19838-6-N03-A
Method: as §1

human Sdc2 [8] = target: T1, human Sdc2; assay: Octet tandem binning; saturating Ab f6 19844-R3-P3-E09
Method: as §1

human Sdc2 [9] = target: T1, human Sdc2; assay: Octet BLI, HIS1K sensor loaded with huSdc2, antibody as sample; Full R2 0.998
human Sdc2 [10] = target: T1, human Sdc2; assay: Kd (human Sdc2), summary table of the mAbs
human Sdc2 [11] = target: T1, human Sdc2; assay: Octet tandem binning; saturating Ab f8 19844-R4M-P2-C02
Method: as §1

human Sdc2 [12] = target: T1, human Sdc2; assay: Octet tandem binning; saturating Ab m8 19844-R4M-P1-B01 (marked non-binding ligand)
Method: as §1

human Sdc2 [13] = target: T1, human Sdc2; assay: Octet tandem binning; saturating Ab f9 19838-6-E17-A
Method: as §1

human Sdc2 [14] = target: T1, human Sdc2; assay: Octet tandem binning; saturating Ab f4 19844-R3-P3-C11
Method: as §1

human Sdc2 [15] = target: T1, human Sdc2; assay: Octet tandem binning; Buffer in place of a saturating Ab
Method: as §1

human Sdc2 [16] = target: T1, human Sdc2; assay: Octet tandem binning; saturating Ab m4 19844-R4M-P1-A10
Method: as §1

human Sdc2 [17] = target: T1, human Sdc2; assay: Octet tandem binning; saturating Ab f5 19844-R4M-P3-E06
Method: as §1

human Sdc2 [18] = target: T1, human Sdc2; assay: Octet tandem binning; saturating Ab m6 19838-20H19-AA (marked non-binding ligand)
Method: as §1

human Sdc2 [19] = target: T1, human Sdc2; assay: Octet tandem binning; saturating Ab f3 19838-6N03-A
Method: as §1

human Sdc2 [20] = target: T1, human Sdc2; assay: Octet BLI, heading box over the sensorgram
human Sdc2 [21] = target: T1, human Sdc2; assay: Octet tandem binning; saturating Ab m3 19844-R3-P1-C02 (row boxed, self-self >0.09)
Method: as §1

pig Sdc2 [22] = target: T2, pig Sdc2; assay: Octet BLI, HIS1K sensor loaded with pigSdc2, antibody as sample; Full R2 0.9988
Method: as §2

human Sdc2 [23] = target: T1, human Sdc2; assay: Octet tandem binning; saturating Ab m7 19844-R3-P1-E07
Method: as §1

human Sdc2 [24] = target: T1, human Sdc2; assay: Octet tandem binning; saturating Ab m5 19844-R4M-P3-A12 (row boxed, self-self >0.09)
Method: as §1

pig Sdc2 [25] = target: T2, pig Sdc2; assay: Octet BLI, HIS1K sensor loaded with pigSdc2, antibody as sample; Full R2 0.9504
human Sdc2 [26] = target: T1, human Sdc2; assay: Octet BLI, HIS1K sensor loaded with huSdc2, antibody as sample; Full R2 0.9738
human Sdc2 [27] = target: T1, human Sdc2; assay: Octet tandem binning; saturating Ab m1 19838-20H19-AB
Method: as §1

human Sdc2 [28] = target: T1, human Sdc2; assay: Octet BLI, heading box over the sensorgram; remark: listed apart in the source
pig Sdc2 [29] = target: T2, pig Sdc2; assay: Octet BLI, heading box over the sensorgram

T1 sequence (P34741 19-144 limits assumed): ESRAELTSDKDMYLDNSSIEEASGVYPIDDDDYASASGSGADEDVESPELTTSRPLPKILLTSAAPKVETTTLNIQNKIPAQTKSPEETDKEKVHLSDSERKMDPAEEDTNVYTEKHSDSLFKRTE
human Sdc2 on Human Umbilical Vein Endothelial Cells (HUVEC), sequence (P34741 19-201 limits assumed): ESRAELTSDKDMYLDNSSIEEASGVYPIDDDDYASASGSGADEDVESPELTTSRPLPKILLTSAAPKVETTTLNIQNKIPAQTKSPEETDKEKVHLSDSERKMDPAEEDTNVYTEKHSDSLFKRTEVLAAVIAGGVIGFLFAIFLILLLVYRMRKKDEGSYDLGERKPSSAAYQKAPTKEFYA

B1: 20-H19-AB (antibody, mouse IgG1, kappa, V domains shown)
VH: EVQLVESGGGLVQPKGSLKLSCAASGFTFNIYAMHWVRQAPGKGLEWIARIGSKSSYYATYYADSVKDRFTISRDDSQSMLYLQTNNLKTEDTAMYYCVSGKGDWGQGTTLTVSS
VL: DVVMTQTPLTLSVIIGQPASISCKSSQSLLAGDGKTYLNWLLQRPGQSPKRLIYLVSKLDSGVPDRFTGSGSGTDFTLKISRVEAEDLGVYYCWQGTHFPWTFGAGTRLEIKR
notes: PentaMice hybridoma clone, made recombinantly in CHO cells; also called 20-H1-AB
Question: How did the “raw competing-Ab binding signal” value (human Sdc2 [1]) turn out when B1 was run?
Answer: 0.0503

Question: What about the “raw competing-Ab binding signal” value (human Sdc2 [2]) of the same binder?
Answer: -0.102

Question: What about the Kd (pig Sdc2 [3]) of the same binder?
Answer: < 0.001 nM

Question: And the “raw competing-Ab binding signal” value (human Sdc2 [4])?
Answer: 0.0503

Question: What about the “% Inhibition of VEGFA-induced permeability at 24hrs (20ug/ml)” value [5] of the same binder?
Answer: 90%

Question: What about the “raw competing-Ab binding signal” value (human Sdc2 [6]) of the same binder?
Answer: -0.0786

Question: And the “raw competing-Ab binding signal” value (human Sdc2 [7])?
Answer: 0.0082

Question: What about the “raw competing-Ab binding signal” value (human Sdc2 [8]) of the same binder?
Answer: -0.0179

Question: What about the Kd (human Sdc2 [9]) of the same binder?
Answer: 0.369 nM

Question: And the koff (human Sdc2 [9])?
Answer: 3.18e-05 s⁻¹

Question: And the kon (human Sdc2 [9])?
Answer: 86200 M⁻¹ s⁻¹

Question: What about the Kd (human Sdc2 [10]) of the same binder?
Answer: 0.37 nM

Question: And the “raw competing-Ab binding signal” value (human Sdc2 [11])?
Answer: 0.0763

Question: And the “raw competing-Ab binding signal” value (human Sdc2 [12])?
Answer: 0.161

Question: And the “raw competing-Ab binding signal” value (human Sdc2 [13])?
Answer: 0.171

Question: What about the “raw competing-Ab binding signal” value (human Sdc2 [14]) of the same binder?
Answer: -0.0618

Question: What about the “raw competing-Ab binding signal” value (human Sdc2 [15]) of the same binder?
Answer: 0.197

Question: What about the “raw competing-Ab binding signal” value (human Sdc2 [16]) of the same binder?
Answer: 0.0759

Question: What about the “raw competing-Ab binding signal” value (human Sdc2 [17]) of the same binder?
Answer: 0.158

Question: And the “raw competing-Ab binding signal” value (human Sdc2 [18])?
Answer: 0.192

Question: What about the “raw competing-Ab binding signal” value (human Sdc2 [19]) of the same binder?
Answer: -0.0355

Question: And the Kd (human Sdc2 [20])?
Answer: ~0.37 nM

Question: And the “raw competing-Ab binding signal” value (human Sdc2 [21])?
Answer: 0.0781

Question: And the koff (pig Sdc2 [22])?
Answer: < 1e-07 s⁻¹

Question: What about the kon (pig Sdc2 [22]) of the same binder?
Answer: 70700 M⁻¹ s⁻¹

Question: What about the “raw competing-Ab binding signal” value (human Sdc2 [23]) of the same binder?
Answer: 0.214

Question: What about the “raw competing-Ab binding signal” value (human Sdc2 [24]) of the same binder?
Answer: 0.173

B2: R3-P3-C11 (antibody, human IgG1, kappa, V domains shown)
VH: EVQLVESGGGLVQPGRSLRLACEASGFTFNNYAVHWVRQAPGKGLEWVAVISYDGTNKYYSDSMKGRFTISRDNSKNTLYLQINSLRVEDTAVYFCARGNYVRRDSFDIWGQGTMVTVSS
VL: DIQMTQSPPSLSASVGDRVTITCRASQSISSYLNWYQQKPGKAPKLLIYGASSLQSGVPLRFSGSGSGADFTLTISSLQPEDFATYYCQQSYISPITFGQGTRLEIKR
notes: human IgG1 kappa from the phage campaign
Question: What does the source list for B2?
Answer: raw competing-Ab binding signal (human Sdc2 [1]): 0.351; Kd (pig Sdc2 [25]): 10.2 nM; koff (pig Sdc2 [25]): 0.0417 s⁻¹; kon (pig Sdc2 [25]): 4.1e+06 M⁻¹ s⁻¹; Kd (human Sdc2 [26]): 2.26 nM; koff (human Sdc2 [26]): 0.00304 s⁻¹; kon (human Sdc2 [26]): 1.34e+06 M⁻¹ s⁻¹; raw competing-Ab binding signal (human Sdc2 [2]): -0.0267; raw competing-Ab binding signal (human Sdc2 [4]): 0.585; % Inhibition of VEGFA-induced permeability at 24hrs (20ug/ml) [5]: 100%; raw competing-Ab binding signal (human Sdc2 [6]): 0.629; raw competing-Ab binding signal (human Sdc2 [7]): 0.697; raw competing-Ab binding signal (human Sdc2 [8]): 0.299; Kd (human Sdc2 [10]): 2.26 nM; raw competing-Ab binding signal (human Sdc2 [11]): 0.479; raw competing-Ab binding signal (human Sdc2 [12]): 0.576; raw competing-Ab binding signal (human Sdc2 [13]): 0.542; raw competing-Ab binding signal (human Sdc2 [15]): 0.523; raw competing-Ab binding signal (human Sdc2 [16]): 0.518; raw competing-Ab binding signal (human Sdc2 [17]): 0.61; raw competing-Ab binding signal (human Sdc2 [18]): 0.593; raw competing-Ab binding signal (human Sdc2 [19]): 0.645; raw competing-Ab binding signal (human Sdc2 [27]): 0.569; raw competing-Ab binding signal (human Sdc2 [21]): 0.491; Kd (human Sdc2 [28]): ~2.26 nM; Kd (pig Sdc2 [29]): ~10.2 nM; raw competing-Ab binding signal (human Sdc2 [23]): 0.573; raw competing-Ab binding signal (human Sdc2 [24]): 0.562

Source: US20250282885A1 (VST BIO, published 2025)
